This note sets out measurements from US4413056A, “Process for the preparation of penicillins and penicillin derivatives” (Beecham Group Limited, priority 1980, dated 1983).

B1: Subtilisin A: Subtilisin A, B licheniformis, supplier Novo; alkaline microbial serine proteinase EC 3.4.21.14 (protein, UniProt P00780 106-379, looked up)
Subtilisin Carlsberg: AQTVPYGIPLIKADKVQAQGFKGANVKVAVLDTGIQASHPDLNVVGGASFVAGEAYNTDGNGHGTHVAGTVAALDNTTGVLGVAPSVSLYAVKVLNSSGSGSYSGIVSGIEWATTNGMDVINMSLGGASGSTAMKQAVDNAYAKGVVVVAAAGNSGSSGNTNTIGYPAKYDSVIAVGAVDSNSNRASFSSVGAELEVMAPGAGVYSTYPTNTYATLNGTSMASPHVAGAAALILSKHPNLSASQVRNRLSSTATYLGSSFYYGKGLINVEAAAQ
B2: Alcalase 1.5 M: Subtilisin A from B licheniformis, supplier Novo (protein, UniProt P00780 106-379, looked up)
Subtilisin Carlsberg: B1 Subtilisin Carlsberg
B3: Protease type VIII: Protease type VIII B subtilis, Subtilisin Carlsberg; Subtilopeptidase A, supplier Sigma (protein, UniProt P00780 106-379, looked up)
Subtilisin Carlsberg: B1 Subtilisin Carlsberg
B4: Proteinase D: Proteinase D (Subtilisin A) B licheniformis, supplier ABM (protein, UniProt P00780 106-379, looked up)
Subtilisin Carlsberg: B1 Subtilisin Carlsberg
B5: Alcalase 0.6 L: Subtilisin A from B licheniformis, supplier Novo (protein, UniProt P00780 106-379, looked up)
Subtilisin Carlsberg: B1 Subtilisin Carlsberg
B6: Protease Bacterial: Protease Bacterial (Subtilisin A) B Sublitisin, supplier CP (protein, UniProt P00780 106-379, looked up)
Subtilisin Carlsberg: B1 Subtilisin Carlsberg
B7: Protease type VII: Protease type VII B amyloliquefaciens, Nagarase; Subtilisin BPN, supplier Sigma (protein, UniProt P00782 108-382, looked up)
Subtilisin BPN': AQSVPYGVSQIKAPALHSQGYTGSNVKVAVIDSGIDSSHPDLKVAGGASMVPSETNPFQDNNSHGTHVAGTVAALNNSIGVLGVAPSASLYAVKVLGADGSGQYSWIINGIEWAIANNMDVINMSLGGPSGSAALKAAVDKAVASGVVVVAAAGNEGTSGSSSTVGYPGKYPSVIAVGAVDSSNQRASFSSVGPELDVMAPGVSIQSTLPGNKYGAYNGTSMASPHVAGAAALILSKHPNWTNTQVRSSLENTTTKLGDSFYYGKGLINVQAAAQ
B8: Protease type XI: Protease type XI Tritirachium album Proteinase K, supplier Sigma (protein, UniProt P06873 106-384, looked up)
Proteinase K: AAQTNAPWGLARISSTSPGTSTYYYDESAGQGSCVYVIDTGIEASHPEFEGRAQMVKTYYYSSRDGNGHGTHCAGTVGSRTYGVAKKTQLFGVKVLDDNGSGQYSTIIAGMDFVASDKNNRNCPKGVVASLSLGGGYSSSVNSAAARLQSSGVMVAVAAGNNNADARNYSPASEPSVCTVGASDRYDRRSSFSNYGSVLDIFGPGTSILSTWIGGSTRSISGTSMATPHVAGLAAYLMTLGKTTAASACRYIADTANKGDLSNIPFGTVNLLAYNNYQA

One data set in a line: De-esterification of the benzyl ester using subtilisin A at controlled pH, ester and acid assayed by HPLC. Format: biochemical. The conditions noted are these: after 4 hours reaction, 37° C., pH 7.5, subtilisin A 28.16 mg. The procedure:
Benzyl 6β-[2-(2-carboxy)-2-thien-3'-ylacetamido 6α-methoxy]penicillanate (0.825 g) was dissolved by adding slowly to stirred 0.25 M, pH 7.8 phosphate buffer (8 ml).
Subtilisin A (28.16 mg) was dissolved in distilled water (10 ml).
Ester solution (3 ml) was added to distilled water (7 ml) and heated to 37° C. in a stirred, water jacketed glass vessel (60 ml) and the pH adjusted to 7.5 by the addition of 1 M NaOH. Subtilisin A solution (10 ml) was heated to 37° C. and added to the ester. The mixture was stirred, the temperature maintained at 37° C. and the pH maintained at 7.5 by the addition of 0.1 M sodium hydroxide.
Samples were removed at appropriate intervals and assayed for ester and acid using the two HPLC systems described in Example 1.
With B1, the “conversion of ester to acid” value is on record as 88%.

The next data set is described as follows: De-esterification of the penicillin C3 benzyl ester by a number of enzymes, ester disappearance assayed by HPLC. Format: biochemical. The conditions noted are these: enzyme solution 0.2 ml (5 mg/ml) plus ester solution 2 ml, phosphate buffer pH 7.8, 37° C., 16 hours. As for the experimental part:
In order to determine the amount of hydrolysis of the benzyl ester of the C3 carboxyl group by a number of enzymes, the ester was subjected, in aqueous reaction mixture, to the action of the particular enzyme using the following procedure and assay procedure.
Ester solution--Ester (50 mg) was added slowly to stirred 0.25 M, pH 7.8 phosphate buffer (1 ml). When the ester was dissolved distilled water (9 ml) was added.
Enzyme solution--Enzyme (5 mg) was dissolved in distilled water (1 ml).
Enzymation--Enzyme solution (0.2 ml) was added to ester solution (2 ml) and the mixture was incubated at 37° C. for 16 hours.
Assay--When the incubation was complete, the reaction mixture was filtered through glass fibre (Whatman GF/A) and assayed for disappearance of the ester by HPLC.
Extent of conversion of ester to acid is determined as follows: [formula]
In table 1 the extent of conversion of ester to acid is shown for a number of samples of the enzyme of the present invention.
Turning to B2, the “Conversion (percentage conversion of the ester to 6[2(2-carboxy)-2-thien-3ylacetamid 6methoxy] penicillin)” value stood at 88.6%.

As for B3, the “Conversion (percentage conversion of the ester to 6[2(2-carboxy)-2-thien-3ylacetamid 6methoxy] penicillin)” value turned out to be 89.0%.

For B4, the “Conversion (percentage conversion of the ester to 6[2(2-carboxy)-2-thien-3ylacetamid 6methoxy] penicillin)” value is recorded as 100.0%.

Take B5: the “Conversion (percentage conversion of the ester to 6[2(2-carboxy)-2-thien-3ylacetamid 6methoxy] penicillin)” value is recorded as 88.0%.

In the case of B6, the “Conversion (percentage conversion of the ester to 6[2(2-carboxy)-2-thien-3ylacetamid 6methoxy] penicillin)” value was 91.7%.

Turning to B1, the “Conversion (percentage conversion of the ester to 6[2(2-carboxy)-2-thien-3ylacetamid 6methoxy] penicillin)” value is on record as 88.8%.

Turning to B7, the “Conversion (percentage conversion of the ester to 6[2(2-carboxy)-2-thien-3ylacetamid 6methoxy] penicillin)” value amounted to 78.0%.

As for B8, the “Conversion (percentage conversion of the ester to 6[2(2-carboxy)-2-thien-3ylacetamid 6methoxy] penicillin)” value amounted to 61.0%.
